From US11306156

Assays:
[1] = target: tissue factor (TF) antigen (UniProt P13726); test: SPR (ProteOn XPR36), Fab captured on anti-penta His surface, TF injected, 1:1 fit; reference wild-type D3H44 Fab
[2] = target: tissue factor (TF) antigen (UniProt P13726); test: SPR (ProteOn XPR36), Fab captured on anti-penta His surface, TF injected, 1:1 fit
[3] = target: tissue factor (TF) antigen (UniProt P13726); test: SPR (ProteOn XPR36): His-tagged Fab captured on anti-penta-His surface, TF as analyte, 1:1 fit; value estimated (*) from the Fab differing only in the L chain tag
[4] = target: tissue factor (TF) antigen (UniProt P13726); test: SPR as for KD; reference: wild-type D3H44 Fab; batch C (+)
[5] = target: tissue factor (TF) antigen (UniProt P13726); test: SPR, ProteOn XPR36; His-tagged Fab captured on anti-penta-His, TF injected; 1:1 fit; batch C (+)
[6] = target: tissue factor (TF) antigen (UniProt P13726); test: SPR, Fab captured on anti-penta His surface, TF as analyte, 1:1 fit
[7] = target: tissue factor (TF) antigen (UniProt P13726); test: SPR, Fab captured on anti-penta-His, TF as analyte, 1:1 fit
[8] = target: tissue factor (TF) antigen (UniProt P13726); test: SPR, Fab captured on anti-penta-His, TF as analyte; against wild-type D3H44 Fab
[9] = target: tissue factor (TF) antigen (UniProt P13726); test: vs wild-type D3H44 Fab (estimated wt KD […]); SPR; estimated (*) from Fab differing only in L chain tag
[10] = target: tissue factor (TF) antigen (UniProt P13726); test: SPR, Fab captured on anti-penta-His, TF as analyte, 1:1 fit; estimated (*) from Fab differing only in L chain tag
[11] = target: tissue factor (TF) antigen (UniProt P13726); test: SPR (ProteOn XPR36), Fab captured on anti-penta His surface, TF injected, 1:1 fit; batch C ('+')
[12] = target: tissue factor (TF) antigen (UniProt P13726); test: SPR (ProteOn XPR36), Fab captured on anti-penta His surface, TF injected, 1:1 fit; batch C ('+'); reference wild-type D3H44 Fab
[13] = target: D3H44 light chain Q38E_Q124E_Q160E_T180E; test: LCCA, SPR tag readout, L1:L2 DNA 1:9 normalized to 1:1; competitor m21
[14] = target: D3H44 light chain Q38E_Q124E_Q160E_T180E; test: LCCA, SPR tag readout, L1:L2 DNA 1:3 normalized to 1:1; competitor m21
[15] = target: D3H44 light chain Q38R_S131K; test: LCCA, SPR tag readout, L1:L2 DNA 1:3 normalized to 1:1; competitor m19
[16] = target: D3H44 light chain Q38R_S131K; test: LCCA, SPR tag readout, L1:L2 DNA 1:9 normalized to 1:1; competitor m19
[17] = target: tissue factor (TF) antigen (UniProt P13726); test: SPR, Fab captured on anti-penta-His, TF as analyte, 1:1 fit; estimated value from Fab differing only in L chain tag
[18] = target: D3H44 light chain S131K (Kabat), N-terminal HA or FLAG tag; test: LCCA co-expression, competing light chain m37, L1:L2 DNA 1:3 normalized to 1:1, SPR tag read-out
[19] = target: D3H44 light chain Q124E_T180E (Kabat), N-terminal HA or FLAG tag; test: LCCA co-expression, competing light chain m36, L1:L2 DNA 1:3 normalized to 1:1, SPR tag read-out
[20] = target: D3H44 light chain P44F_S131K; test: LCCA, SPR tag readout, L1:L2 DNA 1:3 normalized to 1:1; competitor m22
[21] = target: D3H44 light chain P44F_S131K; test: LCCA, SPR tag readout, L1:L2 DNA 1:9 normalized to 1:1; competitor m22
[22] = target: D3H44 light chain Q124E_Q160E_T180E_C214S; test: LCCA, SPR tag readout, L1:L2 DNA 1:3 normalized to 1:1; competitor m20
[23] = target: D3H44 light chain Q124E_Q160E_T180E_C214S; test: LCCA, SPR tag readout, L1:L2 DNA 1:9 normalized to 1:1; competitor m20

Substance: D3H44 Fab heterodimer, H1 L124R_S186K / L1 V133G_S176D_T178D_T180E (H1L1 Fab of LCCA Sets # 9484, 9481, 9483)
- Change in median values of KD of h1l1 Fab heterodimer compared to wild type (-(log(KD design)-log(KD wt))) [1]: -0.07
- Kd [2]: 0.18 nM

Substance: D3H44 H1L1 Fab heterodimer of LCCA set 9635 (H1 L143E_K145T_Q179D; L1 Q124R_T178R)
- Change in median values of KD of h1|1 Fab heterodimer compared to wild type (-(log(KD design)-log(KD wt))) [3]: 0.04 log units
- Kd [3]: 0.14 nM

Substance: D3H44 Fab heterodimer, H1 L124R_Q179K / L1 Q124E_V133G_S176D_T178E_T180E (H1L1 Fab of LCCA Set # 9388)
- Change in median values of KD of h1l1 Fab heterodimer compared to wild type (-(log(KD design)-log(KD wt))) [1]: -0.15
- Kd [2]: 0.22 nM

Substance: D3H44 Fab heterodimer, H1L1 of LCCA Set # 9611 (H1 L143E_K145T_H172R; L1 Q124R_Q160K_T178R)
- change in median KD compared to wild type, -(log(KD design)-log(KD wt)) [4]: 0.12
- Kd [5]: 0.12 nM
- Change in KD with respect to wild type (-(log(KD design) - log(KD wt))) [6]: 0.12
- Kd [6]: 0.12 nM

Substance: D3H44 Fab heterodimer, H1 L45P_L143E_K145T_Q179E / L1 P44F_Q124R_Q160K_T178R (H1L1 Fab of LCCA Set # 9754)
- Kd [7]: 0.3 nM
- change in median KD compared to wild type, -(log(KD design)-log(KD wt)) [8]: -0.28

Substance: H1L1 Fab heterodimer of LCCA set 9651 (D3H44 Fab, H1 L143E_K145T_Q179E, L1 Q124R_Q160K_T178R; L chain tag differs from the measured Fab)
- change in median KD compared to wild type, -(log(KD design)-log(KD wt)) [9]: 0.02
- Kd [10]: 0.15 nM

Substance: D3H44 Fab heterodimer, H1 L124A_L143F_Q179K / L1 Q124E_V133W_S176T_T178L_T180E (H1L1 Fab of LCCA Set # 9096, 9095 and 9094)
- Kd [7]: 0.17 nM
- change in median KD compared to wild type, -(log(KD design)-log(KD wt)) [8]: -0.04

Substance: D3H44 Fab heterodimer, H1 S186K / L1 Q124E_T178E_T180E (H1L1 Fab of LCCA Set # 9852)
- Kd [11]: 0.15 nM
- Change in median values of KD of h1l1 Fab heterodimer compared to wild type (-(log(KD design)-log(KD wt))) [12]: 0.02

Substance: D3H44 Fab heterodimer, H1 L124R_Q179K / L1 Q124E_V133G_S176D_T178E_T180E (H1L1 Fab of LCCA Set # 9392, 9394, 9395, 9376, 9380 and 9384)
- Kd [7]: 0.22 nM
- change in median KD compared to wild type, -(log(KD design)-log(KD wt)) [8]: -0.15

Substance: D3H44 Fab heterodimer, H1 L124R_S186R / L1 V133G_S176D_T178E_T180E (H1L1 Fab of LCCA Sets # 9541, 9544, 9542)
- Change in median values of KD of h1l1 Fab heterodimer compared to wild type (-(log(KD design)-log(KD wt))) [1]: -0.15
- Kd [2]: 0.22 nM

Substance: D3H44 Fab heavy chain Q39R_S186R
- H2L2:H2L1 normalized median ratio [13]: 96%
- H2L2:H2L1 normalized median ratio [14]: 96%
- H2L2:H2L1 normalized median ratio [15]: 4%
- H2L2:H2L1 normalized median ratio [16]: 4%

Substance: D3H44 Fab heterodimer, H L124E_L143E_K145T / L Q124K_V133G_S176R_T178K
- Change in KD with respect to wild type (-(log(KD design) - log(KD wt))) [17]: -0.12
- Kd [17]: 0.21 nM

Substance: D3H44 Fab heterodimer, H1 Q39R_H172R_S186R / L1 Q38E_Q124E_Q160E_T180E (H1L1 Fab of LCCA Set # 9824)
- Kd [11]: 0.15 nM
- Change in median values of KD of h1l1 Fab heterodimer compared to wild type (-(log(KD design)-log(KD wt))) [12]: 0.03

Substance: D3H44 H1L1 Fab heterodimer of LCCA set 9079 (H1 K145T_Q179E; L1 S131K)
- Change in median values of KD of h1|1 Fab heterodimer compared to wild type (-(log(KD design)-log(KD wt))) [3]: -0.01 log units
- Kd [3]: 0.16 nM

Substance: D3H44 Fab heterodimer, H1 L124R_S186K / L1 V133G_S176D_T178D_T180E (H1L1 Fab of LCCA Set # 9471 and 9473)
- Kd [7]: 0.18 nM
- change in median KD compared to wild type, -(log(KD design)-log(KD wt)) [8]: -0.07

Substance: H1L1 Fab heterodimer of LCCA set 9623 (D3H44 Fab, H1 L143E_K145T_Q179D, L1 Q124R_Q160K_T178R; L chain tag differs from the measured Fab)
- change in median KD compared to wild type, -(log(KD design)-log(KD wt)) [9]: 0.39
- Kd [10]: 0.06 nM

Substance: H1L1 Fab heterodimer of LCCA sets 9663 and 9666 (D3H44 Fab, H1 L143E_K145T_Q179E, L1 Q124R_T178R; L chain tag differs from the measured Fab)
- change in median KD compared to wild type, -(log(KD design)-log(KD wt)) [9]: -0.23
- Kd [10]: 0.27 nM

Substance: D3H44 Fab heterodimer, H1L1 of LCCA Sets # 9881 and 9882 (H1 S186R; L1 Q124E_S131T_T178F_T180E)
- change in median KD compared to wild type, -(log(KD design)-log(KD wt)) [4]: 0.15
- Kd [5]: 0.11 nM

Substance: D3H44 Fab heterodimer, H1 L124R_S186K / L1 Q124E_V133G_S176D_T178D_T180E (H1L1 Fab of LCCA Sets # 9451, 9459, 9460, 9461, 9449)
- Change in median values of KD of h1l1 Fab heterodimer compared to wild type (-(log(KD design)-log(KD wt))) [1]: -0.23
- Kd [2]: 0.26 nM

Substance: D3H44 Fab heterodimer, H L124E_L143E_K145T / L Q124K_V133G_S176R_T178R
- Change in KD with respect to wild type (-(log(KD design) - log(KD wt))) [17]: -0.07
- Kd [17]: 0.18 nM

Substance: D3H44 Fab heavy chain Q39E_K145T_H172R_Q179E
- H1L1:H1L2 normalized median ratio [13]: 11%
- H1L1:H1L2 normalized median ratio [14]: 7%
- H1L1:H1L2 normalized median ratio [15]: 93%
- H1L1:H1L2 normalized median scalar value ln(r1/f1) [15]: 2.53
- H1L1:H1L2 normalized median ratio [16]: 89%
- H1L1:H1L2 normalized median scalar value ln(r1/f1) [16]: 2.09

Substance: D3H44 Fab heavy chain S186R (Kabat), C-terminal ABD2-His6 tag
- H2L2:H2L1 normalized median ratio [18]: 4 of 100
- H2L2:H2L1 normalized median ratio [19]: 96 of 100

Substance: D3H44 Fab heavy chain Q39R_H172R_S186R
- H2L2:H2L1 normalized median ratio [13]: 93%
- H2L2:H2L1 normalized median ratio [14]: 94%
- H2L2:H2L1 normalized median ratio [15]: 6%
- H2L2:H2L1 normalized median ratio [16]: 7%

Substance: D3H44 Fab heavy chain L45P_K145T_H172R_Q179E
- H1L1:H1L2 normalized median ratio [20]: 94%
- H1L1:H1L2 normalized median scalar value ln(r1/f1) [20]: 2.78
- H2L2:H2L1 normalized median ratio [20]: 94%
- H1L1:H1L2 normalized median ratio [21]: 92%
- H1L1:H1L2 normalized median scalar value ln(r1/f1) [21]: 2.42
- H2L2:H2L1 normalized median ratio [21]: 92%
- H1L1:H1L2 normalized median ratio [22]: 6%
- H2L2:H2L1 normalized median ratio [22]: 6%
- H1L1:H1L2 normalized median ratio [23]: 8%
- H2L2:H2L1 normalized median ratio [23]: 8%

Substance: D3H44 Fab heavy chain Q39E_K145T_Q179E
- H1L1:H1L2 normalized median ratio [13]: 10%
- H1L1:H1L2 normalized median ratio [14]: 7%
- H1L1:H1L2 normalized median ratio [15]: 93%
- H1L1:H1L2 normalized median ratio [16]: 90%
- H1L1:H1L2 normalized median scalar value ln(r1/f1) [16]: 2.16

Substance: D3H44 Fab heterodimer, H1 Q179K / L1 Q124E_S131T_T178F_T180E (H1L1 Fab of LCCA Sets # 9778, 9777)
- Kd [11]: 0.12 nM
- Change in median values of KD of h1l1 Fab heterodimer compared to wild type (-(log(KD design)-log(KD wt))) [12]: 0.13

Substance: H1L1 Fab heterodimer of LCCA sets 9140, 9142, 9144 and 9146 (D3H44 Fab, H1 L124E_K145T_Q179E, L1 S131K_V133G_S176R; L chain tag differs from the measured Fab)
- change in median KD compared to wild type, -(log(KD design)-log(KD wt)) [9]: 0
- Kd [10]: 0.16 nM

Substance: D3H44 Fab heterodimer, H1L1 of LCCA Sets # 9807 and 9808 (H1 Q179R; L1 Q124E_S176L_T180E)
- change in median KD compared to wild type, -(log(KD design)-log(KD wt)) [4]: -0.02
- Kd [5]: 0.17 nM

Substance: D3H44 Fab heterodimer, H1 Q179R / L1 S131E (H1L1 Fab of LCCA Set # 9984)
- Kd [11]: 0.16 nM
- Change in median values of KD of h1l1 Fab heterodimer compared to wild type (-(log(KD design)-log(KD wt))) [12]: 0
